B1: IL1α delta 1-6_20GGS_hCD8 VHH 1CDA65_1GGS_9xhis (other)
chain: LSNVKYNFMRIIKYEFILNDALNQSIIRANDQYLTAAALHNLDEAVKFDMGAYKSSKDDAKITVILRISKTQLYVTAQDEDQPVLLKEMPEIPKTITGSETNLLFFWETHGTKNYFTSVAHPNLFIATKQDYWVCLAGGPPSITDFQILENQAGGSGGSGGSGGSGGSGGSGGSGGSGGSGGSGGSGGSGGSGGSGGSGGSGGSGGSGGSGGSQVQLQESGGGLVQPGGSLRLSCAASGSIFSINVMGWYRQTPGKERELVAKITNFGITSYADSAQGRFTISRGNAKNTVYLQMNSLKPEDTAVYYCNLDTTGWGPPPYQYWGQGTQVTVSSVDGGSHHHHHHHHH
B2: hCD8 VHH 1CDA65_20GGS_IL1α delta 1-6_1GGS_9xhis (other)
chain: QVQLQESGGGLVQPGGSLRLSCAASGSIFSINVMGWYRQTPGKERELVAKITNFGITSYADSAQGRFTISRGNAKNTVYLQMNSLKPEDTAVYYCNLDTTGWGPPPYQYWGQGTQVTVSSVDGGSGGSGGSGGSGGSGGSGGSGGSGGSGGSGGSGGSGGSGGSGGSGGSGGSGGSGGSGGSLSNVKYNFMRIIKYEFILNDALNQSIIRANDQYLTAAALHNLDEAVKFDMGAYKSSKDDAKITVILRISKTQLYVTAQDEDQPVLLKEMPEIPKTITGSETNLLFFWETHGTKNYFTSVAHPNLFIATKQDYWVCLAGGPPSITDFQILENQAGGSHHHHHHHHH

Biological target: human CD8 alpha (human, UniProt P01732 22-235)
Sequence (P01732 22-235): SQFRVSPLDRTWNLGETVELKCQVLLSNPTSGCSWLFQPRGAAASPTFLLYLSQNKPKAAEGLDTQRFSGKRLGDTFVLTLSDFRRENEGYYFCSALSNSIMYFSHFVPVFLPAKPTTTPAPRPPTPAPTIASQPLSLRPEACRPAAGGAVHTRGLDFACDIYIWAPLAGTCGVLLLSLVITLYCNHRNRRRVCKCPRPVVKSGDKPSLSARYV
Assay: cell-based or functional assay

| EC50, CD8+ HekBlue-IL-1β cells (SEAP) [ng/mL] | Binder |
| --- | --- |
| ~0.3 | B1 |
| ~0.3 | B2 |

From patent publication US20240358826A1 (ORIONIS BIOSCIENCES, published 2024)
